In patent EP4814000A1:

Assays:
[1] = biological target: 003m-P215S-ΔF111-1×GCN4t (RSV); assay: flow cytometry, Expi293F cells, mRNA-LNP (RL151); row 003m-P215S-ΔF111-1×GCN4t
003m-P215S-1×GCN4t (RSV) [2] = assay: flow cytometry, Expi293F cells, Lipofectamine 2000-mRNA; row 003M-P215S-1×GCNt (ORIG)
003m-1×GCN4t (RSV) = assay: flow cytometry, Expi293F cells transfected with the antigen's mRNA
003m-2×GCN4t (RSV) = assay: as above
DS-Cav1 (RSV) = assay: as above
DS-Cav1-2×GCN4t (RSV) = assay: as above
DS-Cav1-1×GCN4t (RSV) = assay: as above
[3] = biological target: 003m-P215S-DELL-1×GCN4t (RSV); assay: flow cytometry, Expi293F cells, Lipofectamine 2000-mRNA
[4] = biological target: 003m-P215S-KST-1×GCN4t (RSV); assay: as above
[5] = biological target: 003m-P215S-NAG-1×GCN4t (RSV); assay: as above
003m-P215S-1×GCN4t (RSV) [6] = assay: as above
003m-P215S-1×GCN4t (RSV) [7] = assay: flow cytometry, Expi293F cells, Lipofectamine 2000-mRNA; row 003m-P215S-1×GCN4t-opti3
[8] = biological target: RSV B-003m-P215S-1×GCN4t-C155S-C290S (RSV B); assay: flow cytometry, Expi293F cells, Lipofectamine 2000-mRNA; mRNA RQ2
[9] = biological target: RSV B-003m-P215S-1×GCN4t (RSV B); assay: as above
[10] = biological target: RSV B-003m-P215S-1×GCN4t-G46S (RSV B); assay: as above
[11] = biological target: RSV B-003m-P215S-1×GCN4t-ori_linker (RSV B); assay: as above
RSV B-003m-P215S (RSV B) = assay: as above
[12] = biological target: RSV B-003m-P215S-1×GCN4t-F190S (RSV B); assay: as above
[13] = biological target: RSV B-003m-P215S-1×GCN4t-D92E (RSV B); assay: as above
[14] = biological target: wild-type RSV B F (RSV B); assay: flow cytometry, Expi293F cells, Lipofectamine 2000-mRNA; row WT-RQ2

Substance	MFI [1]	MFI (003m-P215S-1×GCN4t (RSV) [2])	MFI (003m-1×GCN4t (RSV))	MFI (003m-2×GCN4t (RSV))	MFI (DS-Cav1 (RSV))	MFI (DS-Cav1-2×GCN4t (RSV))	MFI (DS-Cav1-1×GCN4t (RSV))	MFI [3]	MFI [4]	MFI [5]	MFI (003m-P215S-1×GCN4t (RSV) [6])	MFI (003m-P215S-1×GCN4t (RSV) [7])	MFI [8]	MFI [9]	MFI [10]	MFI [11]	MFI (RSV B-003m-P215S (RSV B))	MFI [12]	MFI [13]	MFI [14]
D25-AF488 (antibody)	682	3840	12100	173000	145000	1170	1790	35700	31600	33900	32800	4990	67300	7110	4110	556	379000	13100	2480	138000
AM14-AF488 (antibody)	821	2560	6550	434000	108000	437	923	31400	33800	45700	21600	3430	36300	5300	3670	286	521000	11300	792	206000
